Data set [1] deals with Staphylococcus aureus Cas9 (SauCas9), wild type (Staphylococcus aureus) (UniProt J7RUA5). Kind of data set: BLI; biotinylated SauCas9 protein (or SauCas9-sgRNA complex) loaded on streptavidin biosensors for 60 s; 20°C; 20 mM HEPES pH 7.55, 100 mM KCl, 10 mM MgCl2, 1 mM DTT, 5% glycerol; four or five concentrations of sample.
In data set [2] the test system is SauCas9 (Staphylococcus aureus). The data set can be described thus: BLI. The note with it: 10 mM Mg2+, BLI: 20 mM HEPES pH 7.55, 100 mM KCl, 10 mM MgCl2, 1 mM DTT, 5% (w/v) glycerol, 20 C, complex for crystals: 10 mM Tris-HCl pH 8.0, 300 mM NaCl, 3 mM DTT.
The target of data set [3] is SauCas9 (N580A/C946A) (Staphylococcus aureus) (UniProt J7RUA5). The data set can be described thus: crystal structure; SauCas9 (N580A/C946A)-sgRNA-AcrIIA14ct-dsDNA quaternary complex, mixed at 1:1.2:5:2, purified by SEC; hanging drop, 20°C; 2.22 Å.

“AcrIIA14ct mutant H56K (domain or fragment)”: the Kd in data set [1] was determined as 58 nM.

SauCas9 sgRNA / target DNA (BLI) displayed a Kd in data set [2] (target DNA as analyte, SauCas9-sgRNA complex presumably immobilized) of 0.535 nM. In data set [2] (biotinylated SauCas9 on streptavidin sensor), SauCas9 sgRNA (BLI) came in with a Kd of 0.473 nM. In data set [3], “AcrIIA14ct (C-terminal domain of AcrIIA14, residues 60-159) (domain or fragment)” showed a stoichiometry N (AcrIIA14ct per SauCas9) of 1. In data set [1], the Kd worked out at 0.00558 nM.

In general, Kd refers to the free concentration of one partner at which half of the binding sites on the other are occupied at equilibrium, for simple one-to-one binding. Read a low Kd as higher affinity.

(Values after PMC8216286.)
